# Substitutions are numbered along the chain they refer to. In names and notes the source's numbering stands. Where no end group is shown, it is not given here. [ ]: non-standard residue; d: D form. pT = C[C@@H](OP(=O)(O)O)[C@H](N)C(=O)O; pS = N[C@@H](COP(=O)(O)O)C(=O)O
# T1: 14-3-3θ (human, UniProt P27348 1-245)
# T1 construct: 14-3-3θ, human, UniProt P27348; also called 14-3-3 theta; 14-3-3τ
# T1 sequence: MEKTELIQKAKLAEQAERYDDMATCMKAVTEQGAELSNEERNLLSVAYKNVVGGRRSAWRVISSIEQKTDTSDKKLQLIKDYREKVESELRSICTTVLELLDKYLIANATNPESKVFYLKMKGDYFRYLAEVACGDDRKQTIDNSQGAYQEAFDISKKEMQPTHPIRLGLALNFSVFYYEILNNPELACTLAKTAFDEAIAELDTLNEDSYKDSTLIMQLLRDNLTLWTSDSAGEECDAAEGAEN
# T2: IRSp53-FLAG (wild type), natively phosphorylated (human (from the printed UniProt entry), UniProt Q9UQB8-4 1-521, phosphorylated in HEK293T cells at S325, T340, T360, S366 and a residue within 452SSST455, most likely S454 (mass spectrometry of the purified 14-3-3-binding-competent fraction))
# T2 construct: also called pIRSp53; WT IRSp53-FLAG; source: HEK293T, transfected, in lysate; not shown: FLAG, C-terminal, kept
# T2 sequence (looked up): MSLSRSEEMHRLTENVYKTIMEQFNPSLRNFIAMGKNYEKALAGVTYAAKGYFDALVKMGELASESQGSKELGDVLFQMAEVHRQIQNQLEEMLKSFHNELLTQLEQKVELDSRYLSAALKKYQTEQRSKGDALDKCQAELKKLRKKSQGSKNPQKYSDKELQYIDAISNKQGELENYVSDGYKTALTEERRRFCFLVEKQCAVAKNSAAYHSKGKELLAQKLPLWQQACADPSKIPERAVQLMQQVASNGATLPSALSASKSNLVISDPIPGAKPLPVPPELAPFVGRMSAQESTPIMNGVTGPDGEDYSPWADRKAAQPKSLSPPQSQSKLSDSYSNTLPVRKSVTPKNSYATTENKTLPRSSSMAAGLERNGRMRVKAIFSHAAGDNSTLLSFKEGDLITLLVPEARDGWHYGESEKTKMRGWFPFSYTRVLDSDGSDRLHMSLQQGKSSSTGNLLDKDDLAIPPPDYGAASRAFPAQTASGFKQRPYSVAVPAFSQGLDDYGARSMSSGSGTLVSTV
# B1: Site 3 peptide (pT360) (peptide)
# chain: Ac-ATTENK[pT]LPRSSS-NH2
# SMILES: CC(=O)N[C@@H](C)C(=O)N[C@H](C(=O)N[C@H](C(=O)N[C@@H](CCC(=O)O)C(=O)N[C@@H](CC(N)=O)C(=O)N[C@@H](CCCCN)C(=O)N[C@H](C(=O)N[C@@H](CC(C)C)C(=O)N1CCC[C@H]1C(=O)N[C@@H](CCCNC(=N)N)C(=O)N[C@@H](CO)C(=O)N[C@@H](CO)C(=O)N[C@@H](CO)C(N)=O)[C@@H](C)OP(=O)(O)O)[C@@H](C)O)[C@@H](C)O
# B2: MBP-14-3-3θ (natural protein, human, UniProt P27348 1-245, looked up)
# chain: T1 sequence
# notes: also called MBP-tagged 14-3-3θ; source: E. coli BL21(DE3), purified (amylose resin, SEC)
# B3: Site 2 peptide (pT340) (peptide)
# chain: Ac-LSDSYSN[pT]LPVRKS-NH2
# SMILES: CC(=O)N[C@@H](CC(C)C)C(=O)N[C@@H](CO)C(=O)N[C@@H](CC(=O)O)C(=O)N[C@@H](CO)C(=O)N[C@@H](Cc1ccc(O)cc1)C(=O)N[C@@H](CO)C(=O)N[C@@H](CC(N)=O)C(=O)N[C@H](C(=O)N[C@@H](CC(C)C)C(=O)N1CCC[C@H]1C(=O)N[C@H](C(=O)N[C@@H](CCCNC(=N)N)C(=O)N[C@@H](CCCCN)C(=O)N[C@@H](CO)C(N)=O)C(C)C)[C@@H](C)OP(=O)(O)O
# B4: pIRSp53FS (natural protein, human (from the printed UniProt entry), UniProt Q9UQB8-4 1-521, looked up)
# chain: T2 sequence (looked up) with S519C
# modifications: natively phosphorylated in HEK293T cells; fluorescein maleimide / rhodamine maleimide on C230 and C519
# notes: IRSp53 (BAIAP2), isoform-4, UniProt Q9UQB8-4, full length, S519C; Expressed and purified as m4; also called IRSp53 FRET sensor; phosphorylated IRSp53 (mutant S519C)
# B5: Sites 2,3 peptide (pT340/pT360) (peptide)
# peptide: Ac-DSYSN[pT]LPVRKSVTPKNSYATTENK[pT]LPRSSS-NH2
# SMILES: CC(=O)N[C@@H](CC(=O)O)C(=O)N[C@@H](CO)C(=O)N[C@@H](Cc1ccc(O)cc1)C(=O)N[C@@H](CO)C(=O)N[C@@H](CC(N)=O)C(=O)N[C@H](C(=O)N[C@@H](CC(C)C)C(=O)N1CCC[C@H]1C(=O)N[C@H](C(=O)N[C@@H](CCCNC(=N)N)C(=O)N[C@@H](CCCCN)C(=O)N[C@@H](CO)C(=O)N[C@H](C(=O)N[C@H](C(=O)N1CCC[C@H]1C(=O)N[C@@H](CCCCN)C(=O)N[C@@H](CC(N)=O)C(=O)N[C@@H](CO)C(=O)N[C@@H](Cc1ccc(O)cc1)C(=O)N[C@@H](C)C(=O)N[C@H](C(=O)N[C@H](C(=O)N[C@@H](CCC(=O)O)C(=O)N[C@@H](CC(N)=O)C(=O)N[C@@H](CCCCN)C(=O)N[C@H](C(=O)N[C@@H](CC(C)C)C(=O)N1CCC[C@H]1C(=O)N[C@@H](CCCNC(=N)N)C(=O)N[C@@H](CO)C(=O)N[C@@H](CO)C(=O)N[C@@H](CO)C(N)=O)[C@@H](C)OP(=O)(O)O)[C@@H](C)O)[C@@H](C)O)[C@@H](C)O)C(C)C)C(C)C)[C@@H](C)OP(=O)(O)O
# notes: IRSp53 stretch of 29-40 residues that holds T340 and T360; also called doubly-phosphorylated IRSp53 peptide Sites 2,3; source: synthetic peptide (Dr. Paul Leavis, Tufts University)
# B6: Site 4 peptide (pS366) (peptide)
# chain: Ac-TLPRSS[pS]MAAGLEK-NH2
# SMILES: CSCC[C@H](NC(=O)[C@H](COP(=O)(O)O)NC(=O)[C@H](CO)NC(=O)[C@H](CO)NC(=O)[C@H](CCCNC(=N)N)NC(=O)[C@@H]1CCCN1C(=O)[C@H](CC(C)C)NC(=O)[C@@H](NC(C)=O)[C@@H](C)O)C(=O)N[C@@H](C)C(=O)N[C@@H](C)C(=O)NCC(=O)N[C@@H](CC(C)C)C(=O)N[C@@H](CCC(=O)O)C(=O)N[C@@H](CCCCN)C(N)=O
# B7: Sites 2,4 peptide (pT340/pS366) (peptide)
# peptide: Ac-DSYSN[pT]LPVRKSVTPKNSYATTENKTLPRSS[pS]MAAGLE-NH2
# SMILES: CSCC[C@H](NC(=O)[C@H](COP(=O)(O)O)NC(=O)[C@H](CO)NC(=O)[C@H](CO)NC(=O)[C@H](CCCNC(=N)N)NC(=O)[C@@H]1CCCN1C(=O)[C@H](CC(C)C)NC(=O)[C@@H](NC(=O)[C@H](CCCCN)NC(=O)[C@H](CC(N)=O)NC(=O)[C@H](CCC(=O)O)NC(=O)[C@@H](NC(=O)[C@@H](NC(=O)[C@H](C)NC(=O)[C@H](Cc1ccc(O)cc1)NC(=O)[C@H](CO)NC(=O)[C@H](CC(N)=O)NC(=O)[C@H](CCCCN)NC(=O)[C@@H]1CCCN1C(=O)[C@@H](NC(=O)[C@@H](NC(=O)[C@H](CO)NC(=O)[C@H](CCCCN)NC(=O)[C@H](CCCNC(=N)N)NC(=O)[C@@H](NC(=O)[C@@H]1CCCN1C(=O)[C@H](CC(C)C)NC(=O)[C@@H](NC(=O)[C@H](CC(N)=O)NC(=O)[C@H](CO)NC(=O)[C@H](Cc1ccc(O)cc1)NC(=O)[C@H](CO)NC(=O)[C@H](CC(=O)O)NC(C)=O)[C@@H](C)OP(=O)(O)O)C(C)C)C(C)C)[C@@H](C)O)[C@@H](C)O)[C@@H](C)O)[C@@H](C)O)C(=O)N[C@@H](C)C(=O)N[C@@H](C)C(=O)NCC(=O)N[C@@H](CC(C)C)C(=O)N[C@@H](CCC(=O)O)C(N)=O
# notes: IRSp53 stretch of 29-40 residues that holds T340 and S366; source: synthetic peptide (Dr. Paul Leavis, Tufts University)
# Legend:
# Details in all cases: both partners purified
# 14-3-3θ [1] = biological target: T1, 14-3-3θ; experiment: ITC; peptide in the syringe (100 μM singly, 50 μM doubly phosphorylated) titrated into 10 μM 14-3-3θ in the cell; 20 °C; 20 mM HEPES pH 7.5, 150 mM NaCl, 1 mM MgCl2, 0.1 mM TCEP; single-site model
# [2] = biological target: T2, IRSp53-FLAG (wild type), natively …; experiment: pull-down; 14-3-3θ-affinity column: MBP-14-3-3θ bound to amylose resin; FLAG-eluted IRSp53-FLAG loaded; eluted with 200 μM Sites 2,3 peptide
# 14-3-3θ [3] = biological target: T1, 14-3-3θ; experiment: SEC-MALS; 14-3-3θ (4 mg/mL) pre-incubated 2 h at 20 °C with Site 2 (two peptides per dimer) or Sites 2,4 (one peptide per dimer); TSKgel SuperSW2000
# 2xFLAG-Eps8 = biological target: T3, 2xFLAG-Eps8 (human, UniProt Q12929 1-822); experiment: other fluorescence titration; intramolecular FRET sensor (fluorescein/rhodamine on C230 and C519 of IRSp53); Cdc42, Eps8 and/or 14-3-3θ titrated into the sensor, also back to back; 20 °C; 25 mM Tris-HCl pH 7.5, 150 mM NaCl, 1 mM MgCl2, 5% glycerol, 0.1 mM TCEP; observed Kd (Kobs) from the fits
# T3 construct: Eps8, human, UniProt Q12929, full length; also called FLAG-tagged Eps8
# T3 sequence (Q12929 whole entry): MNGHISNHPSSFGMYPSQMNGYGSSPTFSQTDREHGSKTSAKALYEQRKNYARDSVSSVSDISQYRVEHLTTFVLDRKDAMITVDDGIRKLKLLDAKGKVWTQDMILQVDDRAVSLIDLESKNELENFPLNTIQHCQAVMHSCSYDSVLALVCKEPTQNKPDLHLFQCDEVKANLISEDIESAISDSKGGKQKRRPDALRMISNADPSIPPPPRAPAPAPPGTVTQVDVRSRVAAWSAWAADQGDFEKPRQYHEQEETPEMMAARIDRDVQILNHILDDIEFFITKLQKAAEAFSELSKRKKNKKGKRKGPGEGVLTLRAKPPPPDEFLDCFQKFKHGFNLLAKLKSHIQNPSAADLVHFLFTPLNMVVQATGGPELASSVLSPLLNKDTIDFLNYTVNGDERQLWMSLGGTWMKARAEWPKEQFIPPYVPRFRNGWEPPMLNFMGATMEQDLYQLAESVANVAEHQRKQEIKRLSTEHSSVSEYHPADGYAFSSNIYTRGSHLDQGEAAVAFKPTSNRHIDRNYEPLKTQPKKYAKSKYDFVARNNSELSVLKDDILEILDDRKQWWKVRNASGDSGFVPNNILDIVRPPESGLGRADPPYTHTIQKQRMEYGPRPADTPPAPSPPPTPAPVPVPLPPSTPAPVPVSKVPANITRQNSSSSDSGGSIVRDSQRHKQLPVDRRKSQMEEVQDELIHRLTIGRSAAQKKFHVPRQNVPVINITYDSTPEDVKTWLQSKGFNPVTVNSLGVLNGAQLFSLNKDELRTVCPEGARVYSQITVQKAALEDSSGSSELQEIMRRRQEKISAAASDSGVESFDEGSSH
Binder,stoichiometry N (14-3-3θ [1]),Kd (14-3-3θ [1]),other results
B1,~1 peptide per 14-3-3θ subunit (two peptides per 14-3-3θ dimer),–,–
B2,–,–,binding result [2]: binds
B3,~1 peptide per 14-3-3θ subunit (two peptides per 14-3-3θ dimer),–,stoichiometry N (14-3-3θ [3]): 1 peptide per 14-3-3θ subunit
"Ac-QQGKSSSTGNLLD-NH2 (also: phosphoserine at S454, which serine of the chain is not given here) [Site 5 peptide (pS454)]",~1 peptide per 14-3-3θ subunit (two peptides per 14-3-3θ dimer),12 µM,–
"AQPKSL[pS]PPQSQSKLSDSYSN[pT]LPVRKS [Sites 1,2 peptide (pS325/pT340)]",~1 peptide per 14-3-3θ subunit,–,–
B4,–,–,Kd (2xFLAG-Eps8): 0.042 µM
B5,~0.5 peptide per 14-3-3θ subunit (one peptide per 14-3-3θ dimer),0.045 µM,–
B6,~1 peptide per 14-3-3θ subunit (two peptides per 14-3-3θ dimer),–,–
B7,~0.5 peptide per 14-3-3θ subunit (one peptide per 14-3-3θ dimer),0.067 µM,stoichiometry N (14-3-3θ [3]): 0.5 peptide per 14-3-3θ subunit

# From paper PMC6351565, “Mechanism of IRSp53 inhibition by 14-3-3” (Nature Communications, 2019)
